The source of these data is publication PMC13155533, “The secreted protein PCYOX1L controls the surface expression of acid-sensing ion channel 1a” (Science Advances, 2025).

Data set [1] deals with the molecule itself. Kind of data set: native gel or EMSA; high-resolution clear native PAGE (4 to 16%) of GFP-tagged proteins from 1% digitonin lysates of transfected HEK cells, GFP fluorescence scan; ASIC1a-GFP coexpressed with PCYOX1L-GFP.
Data set [2] deals with the molecule itself. Briefly: native gel or EMSA; high-resolution clear native PAGE (4 to 16%) of GFP-tagged proteins from 1% digitonin lysates of transfected HEK cells, GFP fluorescence scan; without coexpressed PCYOX1L. Background: A gel shift assay detects complexes by their altered migration in electrophoresis.

B1: rat ASIC1a-GFP (natural protein, UniProt P55926-1 1-526, looked up)
chain: MELKTEEEEVGGVQPVSIQAFASSSTLHGLAHIFSYERLSLKRALWALCFLGSLAVLLCVCTERVQYYFCYHHVTKLDEVAASQLTFPAVTLCNLNEFRFSQVSKNDLYHAGELLALLNNRYEIPDTQMADEKQLEILQDKANFRSFKPKPFNMREFYDRAGHDIRDMLLSCHFRGEACSAEDFKVVFTRYGKCYTFNSGQDGRPRLKTMKGGTGNGLEIMLDIQQDEYLPVWGETDETSFEAGIKVQIHSQDEPPFIDQLGFGVAPGFQTFVSCQEQRLIYLPSPWGTCNAVTMDSDFFDSYSITACRIDCETRYLVENCNCRMVHMPGDAPYCTPEQYKECADPALDFLVEKDQEYCVCEMPCNLTRYGKELSMVKIPSKASAKYLAKKFNKSEQYIGENILVLDIFFEVLNYETIEQKKAYEIAGLLGDIGGQMGLFIGASILTVLELFDYAYEVIKHRLCRRGKCQKEAKRSSADKGVALSLDDVKRHNPCESLRGHPAGMTYAANILPHHPARGTFEDFTC
notes: ASIC1a, rat, in pEGFP-N1; the methods say that rat ASIC1a was used for coexpression with PCYOX1L in HEK293 cells; The vector pEGFP-N1 would put GFP at the C-terminus; source: HEK cells, transfected, in digitonin lysate
For orientation: stoichiometry N means the number of molecules, sites or subunits per partner or assembly. In the case of B1, in data set [1], the “stoichiometry N” value was determined as 3.

B2: rat ASIC2a-GFP (natural protein, UniProt Q62962-1 1-512, looked up)
chain: MDLKESPSEGSLQPSSIQIFANTSTLHGIRHIFVYGPLTIRRVLWAVAFVGSLGLLLVESSERVSYYFSYQHVTKVDEVVAQSLVFPAVTLCNLNGFRFSRLTTNDLYHAGELLALLDVNLQIPDPHLADPTVLEALRQKANFKHYKPKQFSMLEFLHRVGHDLKDMMLYCKFKGQECGHQDFTTVFTKYGKCYMFNSGEDGKPLLTTVKGGTGNGLEIMLDIQQDEYLPIWGETEETTFEAGVKVQIHSQSEPPFIQELGFGVAPGFQTFVATQEQRLTYLPPPWGECRSSEMGLDFFPVYSITACRIDCETRYIVENCNCRMVHMPGDAPFCTPEQHKECAEPALGLLAEKDSNYCLCRTPCNLTRYNKELSMVKIPSKTSAKYLEKKFNKSEKYISENILVLDIFFEALNYETIEQKKAYEVAALLGDIGGQMGLFIGASLLTILELFDYIYELIKEKLLDLLGKEEEEGSHDENMSTCDTMPNHSETISHTVNVPLQTALGTLEEIAC
notes: ASIC2a, rat, in pEGFP-N1; In the functional row the untagged rat ASIC2a (pcDNA3.1) was used; source: HEK cells, transfected, in digitonin lysate
In the case of B2, the “stoichiometry N” value in data set [2] turned out to be 3.
